According to patent publication US20030013150A1:

Target: plasminogen
Assay: cell-based or functional assay

## Bacteriophages which harbored K2S on gpIII (K2S-?) (from UniProt P00750 209-562)
  fibrinogen-dependent enzymatic activity (amidolytic assay, plasminogen and S-2251): < 0.25 IU/ml
